Reference: the supplement of paper PMC12764529
± gives the half width of the 95% confidence interval.

How the values were obtained:
[1] = folding stability dG unfold from trypsin proteolysis; higher = more stable
Method in brief: (§1)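 Digests were run with trypsin and chymotrypsin at 11 concentrations in threefold dilutions, plus a no-protease condition, on designed mini-proteins in a PA-tagged cDNA display construct. The mini-proteins were under 80 residues, had no cysteine, and were kept only when AlphaFold2 dimer inter-PAE was above 15. After sequencing, Bayesian fitting of the counts gave K50, from which unfolding free energy was derived against a sequence-predicted unfolded-state K50 and a shared folded-state K50, per protease or combined.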

[2] = folding stability dG unfold from chymotrypsin proteolysis; higher = more stable
Method in brief: as §1

[3] = folding stability dG unfold (combined trypsin and chymotrypsin); higher = more stable
Method in brief: as §1

| Sequence | folding stability dG unfold [1] | folding stability dG unfold [2] | folding stability dG unfold [3] |
| --- | --- | --- | --- |
| SAGGSAGGSAGMVEVEVRKTENGNYVVTTTTVTTSPVTTPNPYTRTVTTVTTSTTVIPATSAGGSAGGSAGG [r11_403_JUSTAS] | -0.758 ± 0.3 kcal/mol | -0.101 ± 0.23 kcal/mol | -0.187 ± 0.39 kcal/mol |
| SRLTVTSEVDPNGNSSTSTITYYDPSTGQPYTLTVTITKLPDGTYKVTITFPSNSTTTTFTLAPDETINLSA [r9_1220_JUSTAS] | 2.58 ± 0.2 kcal/mol | 3.27 ± 0.055 kcal/mol | 3.04 ± 0.22 kcal/mol |
| SAGGMEEVIEEAIEAAKKGENVTITLPASVDPEVVLKALEEASGLKVTPISVTPLPDGTLRIEVKIESAGGS [r16_318_JUSTAS] | 4.24 ± 0.19 kcal/mol | 4.24 ± 0.14 kcal/mol | 5.08 ± 0.54 kcal/mol |
| APKPPVLVVEVVVLFPKEDPEVRELTVEEIAELAAEELTAHPDFKPVKVEVLSAEEHPDGYYTVTLKVTHVS [r1_484_TrMRF] | 2.51 ± 0.15 kcal/mol | 2.4 ± 0.036 kcal/mol | 2.42 ± 0.1 kcal/mol |
| SSLENLEPVSYDVTVEEGPTSPSGVTYTRITITEPGGSTATVTVTPESLTLDYSVRDKARVEALVRELLESA [r9_662_JUSTAS] | 0.957 ± 0.019 kcal/mol | 0.989 ± 0.11 kcal/mol | 1.04 ± 0.064 kcal/mol |
| SAGGSAGGSAMKKLEYTIPVPPGTLSPEKVKELFKKKYPEYENKEIKVEFSPDGTVKITVIESAGGSAGGSA [r18_65_JUSTAS] | 2.38 ± 0.051 kcal/mol | 3.17 ± 0.037 kcal/mol | 2.92 ± 0.066 kcal/mol |
| SAGEKIKEKIKEILKELFPDAEVEIKTLPDGTIIIKLKKDKKIIVIKKTKDGKIKIVKVMTAEELKKLSSAG [r5_852_TrROS_Hall] | 2.15 ± 0.079 kcal/mol | 1.01 ± 0.26 kcal/mol | 1.51 ± 0.29 kcal/mol |
| SAGGMIEVTIPLEEYFDENGNPTEEAKKKIEEAKKKAEELKKKGEPAEVKVTVVEPEPYVGPDNPELVSAGG [r13_731_JUSTAS] | 0.278 ± 0.29 kcal/mol | 0.569 ± 0.059 kcal/mol | 0.652 ± 0.28 kcal/mol |
| SAKKKKPLPKIKKIKITITLKDGTKIEMEITKVEVLEDGTVKIKMKMKVIDKKTKKKYEFEIEIIIKLKSAG [r14_591_TrROS_Hall] | 2.96 ± 0.27 kcal/mol | 3.28 ± 0.17 kcal/mol | 3.27 ± 0.21 kcal/mol |
| SAGMTIRIVVPKKDMSVEELAKKLKEELGLPEDAKVTIKVEKLPNGELVLTITVPSEEERKKIEELLKSAGG [r19_215_TrROS_Hall] | 2.9 ± 0.13 kcal/mol | 2.91 ± 0.15 kcal/mol | 2.98 ± 0.25 kcal/mol |
| SAGGSAGGSAGGSGAGTLITVTVGGKEVPVTVDPSSDRVSITLPEPTSLTLSVEDPARASAGGSAGGSAGGS [r10_1185_JUSTAS] | 0.593 ± 0.1 kcal/mol | -0.602 ± 0.3 kcal/mol | 0.208 ± 0.17 kcal/mol |
| SAGGSAGGSAGGKKYEITRILSIEETEDGRIRILIETKTGIIEFDDISEIPPEIRELLGSAGGSAGGSAGGS [r10_748_TrMRF] | 2.82 ± 0.075 kcal/mol | 2.668 ± 0.021 kcal/mol | 2.73 ± 0.055 kcal/mol |
| SAGGSAGGSAGGSMTIIVKTEEEAKQLAERLKKELEELGLLENLKIEIKVIPEEDLPPESAGGSAGGSAGGS [r4_472_TrROS_Hall] | 1.29 ± 0.079 kcal/mol | 2.33 ± 0.052 kcal/mol | 2.09 ± 0.08 kcal/mol |
| SAGGSAGGSAGNTIEIEINGKPIYVEFEPLPEGMVKVKIYFPDGKKEEITLPANDPIKIGSAGGSAGGSAGG [r11_525_TrROS] | 1.53 ± 0.068 kcal/mol | 1.6 ± 0.045 kcal/mol | 1.58 ± 0.13 kcal/mol |
| SAGGSAGGTPKLAETRKNGKKVLAPVEVDPETGVITVTPPDGTTEVVPASRPPPFIEEDPSLGSSAGGSAGG [r6_174_JUSTAS] | -0.252 ± 0.042 kcal/mol | 1.44 ± 0.037 kcal/mol | 1.03 ± 0.087 kcal/mol |
| STMTLKELKERFPGFPPEMIEEIAERAENDPPGEEVEIYIRFPNGYPIYITVTKPDTVTIQFIPPGEPVYSA [r9_1024_TrROS] | 1.23 ± 0.089 kcal/mol | 1.01 ± 0.22 kcal/mol | 1.24 ± 0.26 kcal/mol |
| SAGGEKVVLEIVLPPELENLTPEELEALKNITLPNGFKITDIELVEENGRLVIRITVDSPEAAEALLKSAGG [r13_269_TrROS_Hall] | 2.04 ± 0.086 kcal/mol | 2.23 ± 0.056 kcal/mol | 2.19 ± 0.22 kcal/mol |
| SAGGSAGGSAGKPKEIFVFDKEIDADEAVALLPDEVKEVVVFDIEEAREKGGILIKAVVDSAGGSAGGSAGG [r11_1002_TrMRF] | -1.18 ± 0.61 kcal/mol | 0.898 ± 0.1 kcal/mol | 0.54 ± 0.14 kcal/mol |
| SKEVKVKVKVVAPFYNKTKPFPLNIEVEVTVSSSNPELSPEKLTPENLAKIAAEKAREILLKLGIPEEFLSA [r9_516_TrMRF] | 2.63 ± 0.14 kcal/mol | 3.09 ± 0.14 kcal/mol | 2.86 ± 0.34 kcal/mol |
| SMVFVEIFYDPIKKKKYIKIVIFLPPNDPEKIKELAEKIKKEIEKFFEELGLKVDKIEVFVFTFPPDFPLSA [r9_117_TrMRF] | 3.38 ± 0.23 kcal/mol | 4.99 ± 0.067 kcal/mol | 4.6 ± 0.22 kcal/mol |
| SAGGMTTTTLTLEEFLEKYPEEVVKERTEKPLGPGANLTIVTLTAPGTTITVTSNPAQPDIWTVTTVTSAGG [r13_942_JUSTAS] | 0.75 ± 0.018 kcal/mol | 1.11 ± 0.049 kcal/mol | 0.965 ± 0.051 kcal/mol |

| Sequence | folding stability dG unfold [1] | folding stability dG unfold [2] | folding stability dG unfold [3] |
| --- | --- | --- | --- |
| SAGGSAMKVIVTVKILDKGEVKTLTEEEAKKYLEEHPEEVKEVEVETTVESDATESFTDIDLNGLKSAGGSA [r15_99_JUSTAS] | -0.185 ± 0.21 kcal/mol | 0.462 ± 0.047 kcal/mol | 0.416 ± 0.23 kcal/mol |
| SAGGSAGGSAGGMKYTIKVTTTYPDGTVTEYTFPSSVSKEEIIKELPSDVVDITFTETASSAGGSAGGSAGG [r7_288_JUSTAS] | 2.17 ± 0.066 kcal/mol | 2.17 ± 0.026 kcal/mol | 2.26 ± 0.04 kcal/mol |
| SAGGSAGGSAGSMTITRTLPGLTVTFTRLPDPNKETITFKLGDKWTTVPASTLSSSVISLSAGGSAGGSAGG [r11_152_JUSTAS] | -0.434 ± 0.38 kcal/mol | -0.142 ± 0.34 kcal/mol | -0.14 ± 0.21 kcal/mol |
| SAGGSAGGSAGEPVEIEIKIKVEVNGKTYEITAKLEVYKNEDGSYEVKLYAPPEAITEVESAGGSAGGSAGG [r11_816_TrROS_Hall] | 2.47 ± 0.21 kcal/mol | 2.99 ± 0.09 kcal/mol | 2.7 ± 0.24 kcal/mol |
| SAGSKKYIPKEVTVYVLGTAPPDMSLEEALKNPNFAVSVPLKATVIYDPETKTARVLLPDGTVVEFPVPSAG [r5_701_TrMRF] | 1.5 ± 0.049 kcal/mol | 1.44 ± 0.11 kcal/mol | 1.52 ± 0.1 kcal/mol |
| SVRIHGPDGQWFPVDDIEFDPNNNKFTFKFPGGKHKFPLPPGWQIEIDKDNAWIRVRPMPPPPPEDKEAKSA [r9_551_TrROS] | 2.88 ± 0.24 kcal/mol | 2.25 ± 0.061 kcal/mol | 2.68 ± 0.34 kcal/mol |
| SAMKKITLDVYRPPDKLLVTVSFPETGKTVTLPFTSEEALREEIVKKLGLSPEELEIVDRKEKELSPELLSA [r9_909_JUSTAS] | 0.194 ± 0.054 kcal/mol | 0.623 ± 0.074 kcal/mol | 0.46 ± 0.13 kcal/mol |
| SAGGSAGGMLSPEEAEAIARALEAAGRPVTELVVTEHPEGTATVTLTVRYPDGSTETLPLSLPASAGGSAGG [r6_762_JUSTAS] | 1.27 ± 0.035 kcal/mol | 0.782 ± 0.1 kcal/mol | 1.05 ± 0.2 kcal/mol |
| SAKASELLKKLPFEAEIEEGEEFVKIKLKNPFLKNPNVTFEFEIPTKKGKPIKVKVTLTKNGAEKIEPSSAG [r14_401_TrMRF] | 2.57 ± 0.14 kcal/mol | 2.18 ± 0.078 kcal/mol | 2.25 ± 0.34 kcal/mol |
| SAGGSAGGSKKKVVIEVVIKVKKEDEEKIKKALEKELEKLGFKVKEVKVERTKNYVKVTVVLESAGGSAGGS [r12_731_TrROS_Hall] | 2.7 ± 0.17 kcal/mol | 3.89 ± 0.2 kcal/mol | 3.63 ± 0.28 kcal/mol |
| SAGLEVEIVSVEYDEETNTVKVKVKVRNPETNEVTTLELTIKLPPPPPPVEKVEVKEVKDGKVTVTYEESAG [r5_150_TrROS_Hall] | 1.43 ± 0.18 kcal/mol | 0.394 ± 0.13 kcal/mol | 1.28 ± 0.48 kcal/mol |
| SAGSPVLATLRTYDPVAKKWTESVYPVSDPEALIAEVAAELGVEVEVDPATGVATAPLPDGRLVVVTVVSAG [r5_937_JUSTAS] | 1.2 ± 0.036 kcal/mol | 1.56 ± 0.014 kcal/mol | 1.45 ± 0.051 kcal/mol |
| SAGGSAGGSAGGKKIIIVVPKEEMTEEELKKLIEELPPGEEIEIEIIVVPPPPPPPKEKKSAGGSAGGSAGG [r7_979_TrROS_Hall] | 0.385 ± 0.077 kcal/mol | 1.92 ± 0.23 kcal/mol | 1.45 ± 0.27 kcal/mol |
| SAGGSAGGSAGSMEEALAAELRARGGVAVEIERIHVPSELAPGTKLPADEVLIRVTARPAASAGGSAGGSAG [r3_229_JUSTAS] | -0.139 ± 0.46 kcal/mol | 0.683 ± 0.12 kcal/mol | 0.525 ± 0.17 kcal/mol |
| SAGGSAGILEKTIKLAEELGLPVVEAKVVKKKNKVYVFFKSKKSKKYVIEIDGDKITIKPYSVVKKSAGGSA [r15_901_TrMRF] | 1.954 ± 0.014 kcal/mol | 2.99 ± 0.05 kcal/mol | 2.68 ± 0.059 kcal/mol |
| SAGGSAGGSAGGSDRVEVELIFKFPNGFYVVIKWEIDPDEPGKIEMEIAIFDPDGKPIWSAGGSAGGSAGGS [r4_297_TrROS] | 3.35 ± 0.2 kcal/mol | 4.69 ± 0.12 kcal/mol | 4.63 ± 0.19 kcal/mol |
| SAGGSAGGGTIEIEDPNGVKVEIEIDPDDGYTIIKAFMPDGWVITILMPPEGKIEIETFPLEPPSAGGSAGG [r6_415_TrROS] | 1.92 ± 0.26 kcal/mol | 2.96 ± 0.23 kcal/mol | 2.43 ± 0.35 kcal/mol |
| SAGGMIIIKFKTKEQAKKAIEAAKKGKEIEITLKDGKKIKAKVVKVEEKPNYVYLVIKTEDGKEIKFSAGGS [r16_254_TrROS_Hall] | 2.16 ± 0.086 kcal/mol | 2.42 ± 0.038 kcal/mol | 2.31 ± 0.12 kcal/mol |
| SAGGDIKILSIQFMPPGWIMIVAEIPLENGEKWHISIMIRITPEARNHPPGQEYEFRIDINISIVPRSAGGS [r16_787_TrROS] | 3.5 ± 0.26 kcal/mol | 4.91 ± 0.41 kcal/mol | 4.5 ± 0.32 kcal/mol |
| SWIPVKEIAKYIAREFGMPKENLDNIEEVDPITVHPNPDGWVQVEATIRFRNPRNGKGHEMRIEIHVPKKSA [r9_230_TrROS] | 1.66 ± 0.024 kcal/mol | 2.22 ± 0.11 kcal/mol | 1.96 ± 0.09 kcal/mol |
| SAGGSAGGSAMTIEELAKKGYEIRIVGPDGKVRTFKVGESLEEIAEKLGLAPGAKIEIRKVSAGGSAGGSAG [r3_216_TrROS_Hall] | 1.48 ± 0.024 kcal/mol | 2.07 ± 0.027 kcal/mol | 1.88 ± 0.049 kcal/mol |
